Laboratory results reported in paper PMC9388682, “Structural basis for cannabinoid-induced potentiation of alpha1-glycine receptors in lipid nanodiscs” (Nature Communications, 2022).

Molecular target: the molecule itself
Assay: cryo-EM structure; purified GlyR in asolectin nanodiscs (MSP1E3D1), buffer A (200 mM NaCl, 20 mM HEPES pH 8.0); with or without 32 μM THC and 0, 0.1 or 1 mM glycine; Titan Krios 300 keV, RELION; homopentamer

B1: zebrafish glycine receptor alpha1 (GlyRα1), full-length, homopentamer in asolectin nanodiscs (receptor, UniProt O93430 25-444, looked up)
chain: ARKAASPMPPSEFLDKLMGKVSGYDARIRPNFKGPPVNVTCNIFINSFGSIAETTMDYRVNIFLRQQWNDPRLAYSEYPDDSLDLDPSMLDSIWKPDLFFANEKGANFHEVTTDNKLLRISKNGNVLYSIRITLVLACPMDLKNFPMDVQTCIMQLESFGYTMNDLIFEWDEKGAVQVADGLTLPQFILKEEKDLRYCTKHYNTGKFTCIEARFHLERQMGYYLIQMYIPSLLIVILSWVSFWINMDAAPARVGLGITTVLTMTTQSSGSRASLPKVSYVKAIDIWMAVCLLFVFSALLEYAAVNFIARQHKELLRFQRRRRHLKEDEAGDGRFSFAAYGMGPACLQAKDGMAIKGNNNNAPTSTNPPEKTVEEMRKLFISRAKRIDTVSRVAFPLVFLIFNIFYWITYKIIRSEDIHKQ
modifications: N-glycans at Asn62
notes: glycine receptor subunit alpha-1, zebrafish, codon-optimized full-length gene (NCBI NP_571477); residues of the models numbered as in UniProt O93430; Phe341-Lys394 (M3-M4 loop, ICD) not modelled in the structures; also called zebrafish homomeric GlyRα1; glycine α1 receptor
stoichiometry N: 5
